Test results taken from patent US20220326223.

Target: human APP (695 amino acid isoform), P05067

B1: human ADAMTS4 (A disintegrin and metalloproteinase with thrombospondin motifs 4) (protein)
chain: FASLSRFVETLVVADDKMAAFHGAGLKRYLLTVMAAAAKAFKHPSIRNPVSLVVTRLVILGSGEEGPQVGPSAAQTLRSFCAWQRGLNTPEDSDPDHFDTAILFTRQDLCGVSTCDTLGMADVGTVCDPARSCAIVEDDGLQSAFTAAHELGHVFNMLHDNSKPCISLNGPLSTSRHVMAPVMAHVDPEEPWSPCSARFITDFLDNGYGHCLLDKPEAPLHLPVTFPGKDYDADRQCQLTFGPDSRHCPQLPPPCAALWCSGHLNGHAMCQTKHSPWADGTPCGPAQACMGGRCLHMDQLQDFNIPQAGGWGPWGPWGDCSRTCGGGVQFSSRDCTRPVPRNGGKYCEGRRTRFRSCNTEDCPTGSALTFREEQCAAYNHRTDLFKSFPGPMDWVPRYTGVAPQDQCKLTCQARALGYYYVLEPRVVDGTPCSPDSSSVCVQGRCIHAGCDRIIGSKKKFDKCMVCGGDGSGCSKQSGSFRKFRYGYNNVVTIPAGATHILVRQQGNAGHRSIYLALKLPDGSYALNGEYTLMPSPTDVVLPGAVSLRYSGATAASETLSGHGPLAQPLTLQVLVAGNPQDTRLRYSFFVPRPTPSTPRPTPQDWLHRRAQILEILRRRPWAGRK
production amounts of APP669-711 (Aβ(-3-40)) and APP669-709 (Aβ(-3-38)) in culture supernatant (IP-MS), ADAMTS4 vector:empty vector 10:1 in APP stable HEK: tended to be rather slightly increased
